Results: patent publication US20250304919A1 (MASSEY VENTURES, published 2025)

Molecular target: T1, human fibronectin (human, UniProt P02751 32-2477)
T1 construct: also called Fn; analyte
Assay: lateral flow dipstick; reference LOD of 6.4 ng/mL is cited from the literature

T1 sequence (P02751 32-2477 limits assumed): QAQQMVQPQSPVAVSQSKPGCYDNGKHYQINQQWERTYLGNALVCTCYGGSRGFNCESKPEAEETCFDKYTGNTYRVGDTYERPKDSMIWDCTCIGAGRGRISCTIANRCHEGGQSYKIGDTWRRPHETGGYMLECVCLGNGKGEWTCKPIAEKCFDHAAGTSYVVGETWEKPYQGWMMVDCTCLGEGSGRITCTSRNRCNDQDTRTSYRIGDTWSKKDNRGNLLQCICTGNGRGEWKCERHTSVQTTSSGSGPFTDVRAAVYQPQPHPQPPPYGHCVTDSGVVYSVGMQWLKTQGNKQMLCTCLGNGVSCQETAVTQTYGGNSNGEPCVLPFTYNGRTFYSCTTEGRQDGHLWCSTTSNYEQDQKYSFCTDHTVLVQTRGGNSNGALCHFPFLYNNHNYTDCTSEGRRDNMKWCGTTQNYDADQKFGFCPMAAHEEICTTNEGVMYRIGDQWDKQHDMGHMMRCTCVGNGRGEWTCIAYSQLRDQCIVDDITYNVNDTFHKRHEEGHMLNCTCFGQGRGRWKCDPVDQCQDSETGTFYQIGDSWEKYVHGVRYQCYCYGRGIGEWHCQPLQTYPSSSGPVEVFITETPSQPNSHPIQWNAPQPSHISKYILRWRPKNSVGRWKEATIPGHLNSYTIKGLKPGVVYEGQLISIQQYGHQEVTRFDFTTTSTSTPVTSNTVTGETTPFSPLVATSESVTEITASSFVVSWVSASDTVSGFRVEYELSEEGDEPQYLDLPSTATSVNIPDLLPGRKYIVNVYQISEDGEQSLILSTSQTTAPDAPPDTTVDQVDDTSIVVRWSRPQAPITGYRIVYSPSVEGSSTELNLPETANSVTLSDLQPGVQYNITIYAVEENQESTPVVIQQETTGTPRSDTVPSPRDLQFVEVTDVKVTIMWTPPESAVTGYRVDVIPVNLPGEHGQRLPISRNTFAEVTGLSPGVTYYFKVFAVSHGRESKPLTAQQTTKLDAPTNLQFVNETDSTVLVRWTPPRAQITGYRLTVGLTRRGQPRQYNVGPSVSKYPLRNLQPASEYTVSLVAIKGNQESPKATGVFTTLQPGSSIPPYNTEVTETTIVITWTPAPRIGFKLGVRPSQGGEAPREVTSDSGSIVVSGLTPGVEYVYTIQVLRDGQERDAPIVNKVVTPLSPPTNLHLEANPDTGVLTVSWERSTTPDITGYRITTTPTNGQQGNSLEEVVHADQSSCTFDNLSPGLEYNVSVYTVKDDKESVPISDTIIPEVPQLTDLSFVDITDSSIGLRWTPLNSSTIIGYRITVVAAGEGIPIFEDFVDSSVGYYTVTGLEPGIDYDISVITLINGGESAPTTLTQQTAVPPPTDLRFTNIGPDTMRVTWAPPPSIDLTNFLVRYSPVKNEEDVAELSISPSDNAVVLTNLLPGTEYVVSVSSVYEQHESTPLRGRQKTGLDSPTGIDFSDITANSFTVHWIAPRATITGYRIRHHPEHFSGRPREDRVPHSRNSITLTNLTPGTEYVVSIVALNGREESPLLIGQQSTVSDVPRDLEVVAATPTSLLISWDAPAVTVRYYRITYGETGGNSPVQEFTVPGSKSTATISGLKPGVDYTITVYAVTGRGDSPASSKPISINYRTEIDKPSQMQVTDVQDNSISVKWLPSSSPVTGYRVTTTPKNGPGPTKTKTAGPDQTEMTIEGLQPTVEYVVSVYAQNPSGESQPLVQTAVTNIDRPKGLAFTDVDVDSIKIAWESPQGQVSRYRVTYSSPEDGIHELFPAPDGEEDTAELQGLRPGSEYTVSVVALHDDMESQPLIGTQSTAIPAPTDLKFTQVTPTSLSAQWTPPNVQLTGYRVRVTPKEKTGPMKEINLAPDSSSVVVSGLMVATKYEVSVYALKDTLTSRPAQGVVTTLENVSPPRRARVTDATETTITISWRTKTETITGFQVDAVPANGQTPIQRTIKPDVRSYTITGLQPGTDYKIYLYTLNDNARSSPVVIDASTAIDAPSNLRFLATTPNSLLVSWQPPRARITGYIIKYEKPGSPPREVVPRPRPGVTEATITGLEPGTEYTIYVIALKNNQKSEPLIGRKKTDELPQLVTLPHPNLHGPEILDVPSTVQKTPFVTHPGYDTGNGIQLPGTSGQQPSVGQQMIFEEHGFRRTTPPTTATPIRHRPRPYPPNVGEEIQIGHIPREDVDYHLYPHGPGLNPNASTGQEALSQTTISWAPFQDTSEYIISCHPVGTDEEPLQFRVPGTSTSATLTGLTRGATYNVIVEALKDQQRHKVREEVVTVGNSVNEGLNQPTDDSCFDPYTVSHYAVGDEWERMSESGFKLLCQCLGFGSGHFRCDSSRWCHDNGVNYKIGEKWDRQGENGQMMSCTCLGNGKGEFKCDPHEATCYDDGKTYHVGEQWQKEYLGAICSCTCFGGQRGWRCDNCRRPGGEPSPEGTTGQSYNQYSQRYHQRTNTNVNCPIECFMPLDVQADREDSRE

B1: BSFnano711G8FnB2 nanorods displaying the FnB-pIII fusion (fibronectin-binding repeats of Streptococcus pyogenes serum opacity factor Sof22 fused to pIII) (other)
chain: AAQPAGGHGPIVDIVEDTGTGVEGGAQNGVVSTQENKDPIVDITEDTQPGMSGSNDATVVEEDTTPQRPDVLVGGQSDPIDITEDTQPGMSGSNDATVVEEDTVPKRPDILVGGQSDPIDITEDTQPGMSGSNDATVIEEDTKPKRFFHFDNEAAAPGGAETVESCLAKPHTENSFTNVWKDDKTLDRYANYEGCLWNATGVVVCTGDETQCYGTWVPIGLAIPENEGGGSEGGGSEGGGSEGGGTKPPEYGDRPIPGYTYINPLDGTYPPGTEQNPANPNPSLEESQPLNTFMFQNNRFRNRQGALTVYTGTVTQGTDPVKTYYQYTPVSSKAMYDAYWNGKFRDCAFHSGFNEDPFVCEYQGQSSDLPQPPVNAGGGSGGGSGGGSEGGGSEGGGSEGGGSEGGGSGGGSGSGDFDYEKMANANKGAMTENADENALQSDAKGKLDSVATDYGAAIDGFIGDVSGLANGNGATGDFAGSNSQMAQVGDGDNSPLMNNFRQYLPSLPQSVECRPFVFGAGKPYEFSIDCDKINLFRGVFAFLLYVATFMYVFSTFANILRNKES
fold improvement of LOD against FnB nanorods of the phage system (Sattar et al., 2015): 160 fold
